Measurements taken from US20220127350A1 (NUMAB THERAPEUTICS, published 2022).

Tests used:
cynomolgus monkey IL-17A [1] = target: T1, cynomolgus monkey IL-17A (Macaca fascicularis (cynomolgus monkey)); experiment: SPR (Biacore T200)
T1 construct: also called cyno IL-17A; cyno IL17A
Description: (§1) After each analyte injection cycle the CAP sensor chip was regenerated and new antigen was captured. The scFvs were injected as analyte using a dose response multi-cycle kinetic assay with concentrations of the analyte ranging from 0.35 to 90 nM diluted in running buffer. Obtained sensorgrams were fitted using the 1:1 binding model. In addition, the scFvs were analyzed in an alternative SPR assay setup (“direct setup”).

human IL-17A [2] = target: T2, human IL-17A (human, UniProt Q16552 24-155, limits assumed); experiment: cell-based or functional assay
cynomolgus monkey IL-17A [3] = target: T1, cynomolgus monkey IL-17A; experiment: SPR (Biacore T200), cynomolgus IL-17A, scFv as analyte
Description: as §1

human IL-17C [4] = target: T3, human IL-17C (human, UniProt Q9P0M4 19-197); experiment: competition ELISA: scFv coated, biotinylated IL-17A, unlabeled cytokine titrated
T3 sequence: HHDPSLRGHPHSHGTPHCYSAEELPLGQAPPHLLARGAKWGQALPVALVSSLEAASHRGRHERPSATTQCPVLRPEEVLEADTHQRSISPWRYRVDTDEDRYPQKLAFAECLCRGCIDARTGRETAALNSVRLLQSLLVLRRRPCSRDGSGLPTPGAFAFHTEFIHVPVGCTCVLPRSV
Excerpt: (§2) For this purpose, the scFvs were coated on a 96-well ELISA plate.

human IL-17F [5] = target: T4, human IL-17F (human, UniProt Q96PD4 31-163); experiment: as above
T4 construct: Peprotech Cat. No. 200-25 in the direct ELISA
T4 sequence: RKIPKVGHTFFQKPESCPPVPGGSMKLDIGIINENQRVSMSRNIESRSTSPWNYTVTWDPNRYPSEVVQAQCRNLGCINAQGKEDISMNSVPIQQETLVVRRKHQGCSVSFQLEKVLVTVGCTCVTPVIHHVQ
Excerpt: as §2

human IL-17A [6] = target: T2, human IL-17A; experiment: competitive ELISA: IL-17RA coated, biotinylated IL-17A preincubated with scFv
Description: Finally, Tetramethylbenzidin solution (KPL, Cat. No. 53-00-00) was added to develop the plate for 5 to 10 minutes and the reaction was stopped with 1 M HCl. The plate was read using a microtiter plate reader (Infinity reader M200 Pro, Tecan) at a wavelength of 450 nm and 570 nm (reference wavelength).

human IL-17A [7] = target: T2, human IL-17A; experiment: SPR (Biacore T200), direct setup: IL-17A amine-coupled on CM5, scFv as analyte
Description: as §1

human IL-17A [8] = target: T2, human IL-17A; experiment: SPR (Biacore T200), capture setup: biotinylated IL-17A captured, scFv as analyte
Description: as §1

human IL-17B [9] = target: T5, human IL-17B (human, UniProt Q9UHF5 21-180); experiment: competition ELISA: scFv PRO571 coated, binding of biotinylated IL-17A detected, unlabeled IL-17B titrated as competitor [II) B]
T5 sequence: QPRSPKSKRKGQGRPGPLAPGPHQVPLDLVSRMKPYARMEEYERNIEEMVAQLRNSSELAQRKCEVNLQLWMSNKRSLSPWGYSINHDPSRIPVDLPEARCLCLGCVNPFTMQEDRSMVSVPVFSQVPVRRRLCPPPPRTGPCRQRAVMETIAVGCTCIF
Excerpt: as §2

human IL-17D [10] = target: T6, human IL-17D (human, UniProt Q8TAD2 16-202, limits assumed); experiment: competition ELISA: scFv PRO571 coated, binding of biotinylated IL-17A detected, unlabeled IL-17D titrated as competitor [II) A]
T6 sequence: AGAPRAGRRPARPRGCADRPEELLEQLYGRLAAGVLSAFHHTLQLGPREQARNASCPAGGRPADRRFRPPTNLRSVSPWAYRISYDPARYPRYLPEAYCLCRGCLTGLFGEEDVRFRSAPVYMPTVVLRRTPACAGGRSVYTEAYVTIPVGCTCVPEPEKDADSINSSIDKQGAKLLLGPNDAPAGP
Excerpt: as §2

human IL-17E [11] = target: T7, human IL-17E (human, UniProt Q9H293 33-177); experiment: competition ELISA: scFv PRO571 coated, binding of biotinylated IL-17A detected, unlabeled IL-17E titrated as competitor [II) A]
T7 construct: also called IL-25
T7 sequence: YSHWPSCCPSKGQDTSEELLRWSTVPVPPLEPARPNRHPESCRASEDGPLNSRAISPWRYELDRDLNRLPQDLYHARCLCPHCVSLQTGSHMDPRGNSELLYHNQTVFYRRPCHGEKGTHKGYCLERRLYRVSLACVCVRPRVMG
Excerpt: as §2

human IL-17B [12] = target: T5, human IL-17B; experiment: competition ELISA: scFv PRO592 coated, binding of biotinylated IL-17A detected, unlabeled IL-17B titrated as competitor [II) D]
Excerpt: as §2

human IL-17C [13] = target: T3, human IL-17C; experiment: competition ELISA: scFv PRO592 coated, binding of biotinylated IL-17A detected, unlabeled IL-17C titrated as competitor [II) D]
Excerpt: as §2

human IL-17D [14] = target: T6, human IL-17D; experiment: competition ELISA: scFv PRO592 coated, binding of biotinylated IL-17A detected, unlabeled IL-17D titrated as competitor [II) C]
Excerpt: as §2

human IL-17E [15] = target: T7, human IL-17E; experiment: competition ELISA: scFv PRO592 coated, binding of biotinylated IL-17A detected, unlabeled IL-17E titrated as competitor [II) C]
Excerpt: as §2

human IL-17F [16] = target: T4, human IL-17F; experiment: competition ELISA: scFv PRO592 coated, binding of biotinylated IL-17A detected, unlabeled IL-17F titrated as competitor [II) C]
Excerpt: as §2

human IL-17B [17] = target: T5, human IL-17B; experiment: competition ELISA: scFv A1 coated, binding of biotinylated IL-17A detected, unlabeled IL-17B titrated as competitor [I) B]
Excerpt: as §2

human IL-17C [18] = target: T3, human IL-17C; experiment: competition ELISA: scFv A1 coated, binding of biotinylated IL-17A detected, unlabeled IL-17C titrated as competitor [I) B]
Excerpt: as §2

human IL-17D [19] = target: T6, human IL-17D; experiment: competition ELISA: scFv A1 coated, binding of biotinylated IL-17A detected, unlabeled IL-17D titrated as competitor [I) A]
Excerpt: as §2

human IL-17E [20] = target: T7, human IL-17E; experiment: competition ELISA: scFv A1 coated, binding of biotinylated IL-17A detected, unlabeled IL-17E titrated as competitor [I) A]
Excerpt: as §2

human IL-17F [21] = target: T4, human IL-17F; experiment: competition ELISA: scFv A1 coated, binding of biotinylated IL-17A detected, unlabeled IL-17F titrated as competitor [I) A]
Excerpt: as §2

Row | Binder | KD, cyno/KD, human (cynomolgus monkey IL-17A [1]) | IC50 in HT-29 assay, GRO-α secretion (human IL-17A [2]) [ng/mL] | Kd (cynomolgus monkey IL-17A [3]) [nM] | koff (cynomolgus monkey IL-17A [3]) [s⁻¹] | kon (cynomolgus monkey IL-17A [3]) [M⁻¹ s⁻¹] | IC50 (human IL-17A [6]) [ng/mL] | Kd (human IL-17A [7]) [nM] | koff (human IL-17A [7]) [s⁻¹] | kon (human IL-17A [7]) [M⁻¹ s⁻¹] | Kd (human IL-17A [8]) [nM] | koff (human IL-17A [8]) [s⁻¹] | kon (human IL-17A [8]) [M⁻¹ s⁻¹] | other results
1 | PRO571 (humanized anti-IL-17A scFv, CDR graft of 27-31-C04) (scFv, VL-linker-VH; also called 27-31-C04-sc01; 27_31_C04_sc01) scFv: DIQMTQSPSSLSASVGDRVTITCQASESIYRYLSWYQQKPGKAPKLLIYLASTLTSGVPSRFSGSGSGTDFTLTISSLQPEDFATYYCQSNFGTASTTYYNTFGGGTKLTVLGGGGGSGGGGSGGGGSGGGGSEVQLVESGGGLVQPGGSLRLSCAASGFSFSGFYYMCWVRQAPGKGLEWIGCIDTGDGTTYYASWAKGRFTISRDNSKNTVYLQMNSLRAEDTAVYYCARDAAYGGYAYPAHGMDLWGQGTLVTVSS | 0.28 | 0.1 | 0.0331 | 3.88e-05 | 1.17e+06 | 1.8 | 0.0403 | 4.55e-05 | 1.13e+06 | 0.119 | 0.000144 | 1.21e+06 | binding result (human IL-17C [4]): no binding (tested: 100000 ng/ml); binding result (human IL-17F [5]): no binding (tested: 20000 ng/ml); binding result (human IL-17B [9]): no binding (tested: about 100000 ng/mL); binding result (human IL-17D [10]): no binding (tested: about 500000 ng/mL); binding result (human IL-17E [11]): no binding (tested: about 20000 ng/mL)
2 | PRO592 (humanized anti-IL-17A scFv, STR graft of 27-31-C04) (scFv, VL-linker-VH; also called 27-31-C04-sc02; 27_31_C04_sc02) scFv: DIQMTQSPSSLSASVGDRVTITCQASESIYRYLSWYQQKPGKAPKLLIYLASTLTSGVPSRFSGSGSGTDFTLTISSLQPEDFATYYCQSNFGTASTTYYNTFGGGTKLTVLGGGGGSGGGGSGGGGSGGGGSEVQLVESGGGLVQPGGSLTLSCAASGFSFSGFYYMCWVRQAPGKGLEWIGCIDTGDGTTYYASWAKGRFTISRDNSKNTVYLQMNSLRAEDTAVYYCARDAAYGGYAYPAHGMDLWGPGTLVTVSS | 0.44 | 0.13 | 0.16 | 5.38e-05 | 336000 | 0.9 | 0.0376 | 4.07e-05 | 1.08e+06 | 0.367 | 0.000142 | 387000 | binding result (human IL-17B [12]): no binding (tested: about 100000 ng/mL); binding result (human IL-17C [13]): no binding (tested: about 100000 ng/mL); binding result (human IL-17D [14]): no binding (tested: about 500000 ng/mL); binding result (human IL-17E [15]): no binding (tested: about 20000 ng/mL); binding result (human IL-17F [16]): no binding (tested: about 20000 ng/mL)
3 | A1 (humanized anti-IL-17A scFv, CDR graft of 27-07-G02) (scFv, VL-linker-VH; also called 27-07-G02-sc01; 27_07_G02_sc01) scFv: DIQMTQSPSSLSASVGDRVTITCQASQTINYWLAWYQQKPGKAPKLLIYRASTLASGVPSRFSGSGSGTDFTLTISSLQPEDFATYYCQNYYYSTSRSYGFGGGTKLTVLGGGGGSGGGGSGGGGSGGGGSEVQLVESGGGLVQPGGSLRLSCAASGFSFSSDYWMCWVRQAPGKGLEWIGCIYAGDVDDTDYASWARGRFTISRDNSKNTVYLQMNSLRAEDTAVYYCARVDGFDITYFDLWGQGTLVTVSS | 3.66 | 0.2 | 0.905 | 0.000261 | 288000 | 2 | 0.139 | 0.000102 | 737000 | 0.247 | 0.000112 | 455000 | binding result (human IL-17B [17]): no binding (tested: about 100000 ng/mL); binding result (human IL-17C [18]): no binding (tested: about 100000 ng/mL); binding result (human IL-17D [19]): no binding (tested: about 100000 ng/mL on the axis); binding result (human IL-17E [20]): no binding (tested: about 20000 ng/mL); binding result (human IL-17F [21]): no binding (tested: about 20000 ng/mL)
